Source: publication PMC4288178, “CRISPR RNA binding and DNA target recognition by purified Cascade complexes from Escherichia coli”

Experiments:
[1] = molecular target: T1, Cascade+ (Cascade co-expressed with g8 crRNA) (Escherichia coli (K12; expressed in …, UniProt Q46901;P76632;Q46899;Q46898;Q46897 1-502;1-160;1-363;1-224;1-199); assay: EMSA; EMSA: 20 mM Tris-HCl pH 8, 20 mM NaCl, 10 nM 32P probe, 30 min at 30 or 37 C, 6% native PAGE; loading 10 min at 30 C with crRNA (0.5 uM in Fig 3). Kd values are printed only in Fig 5A (not in the material); settings: protein: recombinant; tags: N-terminal 6His on Cse1 (CasA); copies: 1;2;6;1;1; label: DNA 5'-32P; guide + target strand
T1 sequence 1: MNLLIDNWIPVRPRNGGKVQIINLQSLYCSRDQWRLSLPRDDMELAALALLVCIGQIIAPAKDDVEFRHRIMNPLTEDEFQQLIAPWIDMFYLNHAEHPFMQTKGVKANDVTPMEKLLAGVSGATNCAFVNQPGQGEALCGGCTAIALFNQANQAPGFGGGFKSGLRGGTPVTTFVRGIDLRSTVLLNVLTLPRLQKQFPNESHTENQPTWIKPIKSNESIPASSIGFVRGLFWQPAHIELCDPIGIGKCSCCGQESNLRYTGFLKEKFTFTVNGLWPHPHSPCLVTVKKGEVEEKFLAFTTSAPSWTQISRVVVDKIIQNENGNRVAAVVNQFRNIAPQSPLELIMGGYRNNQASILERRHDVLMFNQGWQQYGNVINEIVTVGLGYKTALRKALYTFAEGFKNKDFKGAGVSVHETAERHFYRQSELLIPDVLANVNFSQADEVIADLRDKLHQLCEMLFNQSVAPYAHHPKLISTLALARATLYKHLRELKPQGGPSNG
T1 sequence 2: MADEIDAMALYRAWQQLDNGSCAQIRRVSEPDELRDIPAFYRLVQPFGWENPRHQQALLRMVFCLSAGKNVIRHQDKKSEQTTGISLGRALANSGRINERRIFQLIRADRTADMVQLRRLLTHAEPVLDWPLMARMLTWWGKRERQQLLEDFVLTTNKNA
T1 sequence 3: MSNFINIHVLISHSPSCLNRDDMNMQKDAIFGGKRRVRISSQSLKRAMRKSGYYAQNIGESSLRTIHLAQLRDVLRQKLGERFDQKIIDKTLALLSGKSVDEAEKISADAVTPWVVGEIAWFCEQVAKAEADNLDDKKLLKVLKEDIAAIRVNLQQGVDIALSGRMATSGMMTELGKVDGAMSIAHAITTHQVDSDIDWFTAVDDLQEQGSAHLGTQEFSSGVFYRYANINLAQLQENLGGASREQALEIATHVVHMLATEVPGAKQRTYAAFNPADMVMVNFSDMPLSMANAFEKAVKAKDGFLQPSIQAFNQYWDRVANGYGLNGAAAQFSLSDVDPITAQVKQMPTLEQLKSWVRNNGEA
T1 sequence 4: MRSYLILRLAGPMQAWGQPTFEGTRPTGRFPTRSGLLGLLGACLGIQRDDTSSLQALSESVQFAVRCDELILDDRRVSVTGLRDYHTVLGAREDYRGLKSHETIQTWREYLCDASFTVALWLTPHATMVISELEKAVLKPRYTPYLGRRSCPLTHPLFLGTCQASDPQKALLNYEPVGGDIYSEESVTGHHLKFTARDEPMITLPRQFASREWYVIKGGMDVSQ
T1 sequence 5: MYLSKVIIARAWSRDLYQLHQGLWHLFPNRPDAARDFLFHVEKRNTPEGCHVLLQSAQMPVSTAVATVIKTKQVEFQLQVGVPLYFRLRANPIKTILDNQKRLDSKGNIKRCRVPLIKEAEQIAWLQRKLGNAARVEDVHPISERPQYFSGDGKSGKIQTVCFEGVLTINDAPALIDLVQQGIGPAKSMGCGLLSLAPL

Cascade- (crRNA-free …) [2] = molecular target: T2, Cascade- (crRNA-free Cse1-Cse2-Cas7-Cas5-Cas6e) (Escherichia coli (K12; expressed in …, UniProt Q46901;P76632;Q46899;Q46898;Q46897 1-502;1-160;1-363;1-224;1-199); assay: EMSA; loaded with crRNA1; EMSA: 20 mM Tris-HCl pH 8, 20 mM NaCl, 10 nM 32P probe, 30 min at 30 or 37 C, 6% native PAGE; loading 10 min at 30 C with crRNA (0.5 uM in Fig 3). Kd values are printed only in Fig 5A (not in the material); settings: protein: recombinant, tags: N-terminal 6His on Cse1 (CasA), copies: 1;2;6;1;1, label: DNA 5'-32P
T2 sequence 1: T1 sequence 1
T2 sequence 2: T1 sequence 2
T2 sequence 3: T1 sequence 3
T2 sequence 4: T1 sequence 4
T2 sequence 5: T1 sequence 5

[3] = molecular target: T1, Cascade+ (Cascade co-expressed with g8 …); assay: EMSA; co-expressed crRNA; EMSA: 20 mM Tris-HCl pH 8, 20 mM NaCl, 10 nM 32P probe, 30 min at 30 or 37 C, 6% native PAGE; loading 10 min at 30 C with crRNA (0.5 uM in Fig 3). Kd values are printed only in Fig 5A (not in the material); settings: protein: recombinant; tags: N-terminal 6His on Cse1 (CasA); copies: 1;2;6;1;1; label: DNA 5'-32P; guide + blunt duplex
Cascade- (crRNA-free …) [4] = molecular target: T2, Cascade- (crRNA-free …); assay: EMSA; EMSA: 20 mM Tris-HCl pH 8, 20 mM NaCl, 10 nM 32P probe, 30 min at 30 or 37 C, 6% native PAGE; loading 10 min at 30 C with crRNA (0.5 uM in Fig 3). Kd values are printed only in Fig 5A (not in the material); settings: protein: recombinant; tags: N-terminal 6His on Cse1 (CasA); copies: 1;2;6;1;1; label: 5'-32P; 3' handle hairpin
[5] = molecular target: T1, Cascade+ (Cascade co-expressed with g8 …); assay: EMSA; co-expressed g8 crRNA; EMSA: 20 mM Tris-HCl pH 8, 20 mM NaCl, 10 nM 32P probe, 30 min at 30 or 37 C, 6% native PAGE; loading 10 min at 30 C with crRNA (0.5 uM in Fig 3). Kd values are printed only in Fig 5A (not in the material); settings: protein: recombinant; tags: N-terminal 6His on Cse1 (CasA); copies: 1;2;6;1;1; label: 5'-32P; 3' handle hairpin
Cascade- (crRNA-free …) [6] = molecular target: T2, Cascade- (crRNA-free …); assay: EMSA; loaded with crRNA MS2; EMSA: 20 mM Tris-HCl pH 8, 20 mM NaCl, 10 nM 32P probe, 30 min at 30 or 37 C, 6% native PAGE; loading 10 min at 30 C with crRNA (0.5 uM in Fig 3). Kd values are printed only in Fig 5A (not in the material); settings: protein: recombinant; tags: N-terminal 6His on Cse1 (CasA); copies: 1;2;6;1;1; label: DNA 5'-32P; guide + blunt duplex

B1: g8 crRNA + g8 ssDNA (mixed)
RNA: AUAAACCGCUGUCUUUCGCUGCUGAGGGUGACGAUCCGCCGAGUUCCCCGCGCCAGCGGGG
DNA: CAGGGAGTTAAAGGCCGCTTTTGCGGGATCGTCACCCTCAGCAGCGAAAGACAGCATCGGAACGAGGGTAGCAACGGCT
binding result [1]: binds
binding result (Cascade- (crRNA-free …) [2]; guide + target strand): binds

B2: g8 crRNA1 + g8 dsDNA (mixed)
RNA: B1 RNA
DNA 1: B1 DNA
DNA 2: AGCCGTTGCTACCCTCGTTCCGATGCTGTCTTTCGCTGCTGAGGGTGACGATCCCGCAAAAGCGGCCTTTAACTCCCTG
modifications: 2',3'-cyclic phosphate on crRNA
binding result [3]: binds
binding result (Cascade- (crRNA-free …) [2]; guide + blunt duplex): binds

B3: crRNA1 (-8/+21) (structured_RNA)
RNA: B1 RNA
modifications: 2',3'-cyclic phosphate at 3' end
binding result (Cascade- (crRNA-free …) [4]): binds
binding result [5]: binds

B4: crRNA MS2 + MS2 dsDNA (mixed)
RNA: AUAAACCGGCACCGACCCCUUUCUGGAGGUACAUAUUCAUGAGUUCCCCGCGCCAGCGGGG
DNA 1: TGAGCCGGCGTCTGATAAAGGCACCGACCCCTTTCTGGAGGTACATATTCATATCAGGCTCCTTACAGGCAG
DNA 2: CTGCCTGTAAGGAGCCTGATATGAATATGTACCTCCAGAAAGGGGTCGGTGCCTTTATCAGACGCCGGCTCA
binding result (Cascade- (crRNA-free …) [6]): binds
